Laboratory results reported in US20050043510A1, “Affinity purification system using troponin molecules as affinity ligands” (priority 2003, published 2005).

Columns and labels:
[1] = system: troponin C-tagged C-terminal truncated version of La/SSB (TnC-LaΔC)
[2] = molecular target: calmodulin (Homo sapiens, UniProt P0DP23); details: in the presence of calcium; Hanson Pierce et al. (1998); cited from earlier work
[3] = molecular target: bovine serum albumin (Bos taurus, UniProt P02769); details: in the presence of calcium; Hanson Pierce et al. (1998); cited from earlier work
bovine serum albumin, sequence (P02769 25-607): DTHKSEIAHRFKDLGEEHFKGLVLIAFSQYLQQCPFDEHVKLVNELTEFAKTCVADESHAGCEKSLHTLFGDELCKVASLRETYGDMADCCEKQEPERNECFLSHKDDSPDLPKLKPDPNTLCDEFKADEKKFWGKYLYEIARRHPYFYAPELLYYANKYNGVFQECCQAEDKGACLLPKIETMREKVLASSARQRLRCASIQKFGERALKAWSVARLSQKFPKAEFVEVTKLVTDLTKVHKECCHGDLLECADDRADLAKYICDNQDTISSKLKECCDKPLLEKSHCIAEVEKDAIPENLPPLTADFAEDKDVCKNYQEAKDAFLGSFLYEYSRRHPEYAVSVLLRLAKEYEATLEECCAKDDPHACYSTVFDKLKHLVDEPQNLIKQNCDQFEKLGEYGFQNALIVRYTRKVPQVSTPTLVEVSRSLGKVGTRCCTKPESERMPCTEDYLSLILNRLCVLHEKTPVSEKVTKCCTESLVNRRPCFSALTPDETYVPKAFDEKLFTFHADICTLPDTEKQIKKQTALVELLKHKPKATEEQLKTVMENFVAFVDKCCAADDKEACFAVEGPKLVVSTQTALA

[4] = molecular target: rabbit skeletal muscle troponin C (Oryctolagus cuniculus, UniProt P02586); details: in the presence of calcium; Hanson Pierce et al. (1998); cited from earlier work
rabbit skeletal muscle troponin C, sequence (P02586 whole entry): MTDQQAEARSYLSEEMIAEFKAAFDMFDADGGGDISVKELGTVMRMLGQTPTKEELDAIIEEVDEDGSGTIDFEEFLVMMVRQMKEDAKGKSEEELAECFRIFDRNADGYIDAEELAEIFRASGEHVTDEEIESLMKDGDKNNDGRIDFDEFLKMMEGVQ

Substance	thrombin proteolytic cleavage (SDS-PAGE) [1]	Calcium dependent binding [2]	Calcium dependent binding [3]	Calcium dependent binding [4]
biotinylated thrombin (Thrombin Cleavage Capture Kit, Novagen)	apparent complete cleavage when 0.1 units of thrombin was used			
SRLDYLKSSLLHLGSR (SEQ ID NO:1) [Troponin C binding peptide, previously described (Hanson Pierce et al. 1998)]		not	not	demonstrated
